System: patients with newly diagnosed multiple myeloma ineligible for HDC and ASCT
Test: MAIA: safety, adverse events graded by NCI-CTCAE version 4, treatment discontinuations
[1] = Grade 3 or 4, safety population

Text: Safety will be measured by adverse events, laboratory test results, ECGs, vital sign measurements, physical examination findings, and assessment of ECOG performance status score.
Safety analyses included adverse event assessment graded in severity according to NCI-CTCAE version 4, electrocardiograms, clinical laboratory testing, physical examinations, and vital signs.
The safety population included patients who received any dose of trial treatment.

daratumumab (DARZALEX®) group: daratumumab (DARZALEX®) in combination with lenalidomide and dexamethasone
patients with adverse events leading to discontinuation of trial treatment: 7.1%
adverse events leading to death (% of patients): 6.9%
invasive second primary malignancies (% of patients): 3.3%
pneumonia as adverse event leading to death (% of patients): 0.5%
pneumonia as serious adverse event (% of patients): 13.2%
serious adverse events (% of patients): 62.9%
Any infusion-related reaction (Any Grade, safety population): 149 (40.9) number of patients (percent)
Asthenia (Any Grade, safety population): 117 (32.1) number of patients (percent)
Back pain (Any Grade, safety population): 123 (33.8) number of patients (percent)
Constipation (Any Grade, safety population): 149 (40.9) number of patients (percent)
Diarrhea (Any Grade, safety population): 207 (56.9) number of patients (percent)
Fatigue (Any Grade, safety population): 147 (40.4) number of patients (percent)
Invasive second primary malignancy (Any Grade, safety population): 12 (3.3) number of patients (percent)
Nausea (Any Grade, safety population): 115 (31.6) number of patients (percent)
Peripheral edema (Any Grade, safety population): 140 (38.5) number of patients (percent)
Second primary malignancy (Any Grade, safety population): 32 (8.8) number of patients (percent)
anemia (Any Grade, safety population): 126 (34.6) number of patients (percent)
leukopenia (Any Grade, safety population): 68 (18.7) number of patients (percent)
lymphopenia (Any Grade, safety population): 66 (18.1) number of patients (percent)
pneumonia (Any Grade, safety population): 82 (22.5) number of patients (percent)
neutropenia (Any Grade, safety population (N = 364 vs 365)): 207 (56.9) number of patients (percent)
Any infusion-related reaction [1]: 10 (2.7) number of patients (percent)
Asthenia [1]: 16 (4.4) number of patients (percent)
Back pain [1]: 11 (3.0) number of patients (percent)
Constipation [1]: 6 (1.6) number of patients (percent)
Diarrhea [1]: 24 (6.6) number of patients (percent)
Fatigue [1]: 29 (8.0) number of patients (percent)
Nausea [1]: 5 (1.4) number of patients (percent)
Peripheral edema [1]: 7 (1.9) number of patients (percent)
anemia [1]: 43 (11.8) number of patients (percent)
leukopenia [1]: 40 (11.0) number of patients (percent)
lymphopenia [1]: 55 (15.1) number of patients (percent)
neutropenia [1]: 182 (50.0) number of patients (percent)
pneumonia [1]: 50 (13.7) number of patients (percent)
treatment discontinued due to adverse events (at clinical cutoff date Sep. 24, 2018): 7.4%
anemia (grade 3/4 adverse events): 11.8%
leukopenia (grade 3/4 adverse events): 11.0%
lymphopenia (grade 3/4 adverse events): 15.1%
neutropenia (grade 3/4 adverse events): 50.0%
pneumonia (grade 3/4 adverse events): 13.7%
discontinued treatment due to neutropenia (in vivo): no patients
invasive second primary malignancies: hematologic malignancies (in vivo): 0.5%
invasive second primary malignancies: solid tumors (in vivo): 2.7%
lenalidomide dose delays, reductions, re-escalations, or skipping (combined) due to treatment-emergent adverse events (in vivo): 77.5%
lenalidomide dose discontinuations due to treatment-emergent adverse events (in vivo): 20.9%

From patent US20200268847A1, “Methods of Treating Newly Diagnosed Multiple Myeloma with a Combination of An Antibody that Specifically Binds CD38, Lenalidomide and Dexamethasone” (Janssen Biotech, Inc., priority 2019, published 2020)
